According to patent publication US20200399344A1 (SHATTUCK LABS, published 2020):
Several values for one entry are separate records, joined by “and”; a condition that tells them apart may be missing. Equal entries are not always repeated.

T1: recombinant human 2B4 protein (rh2B4-His) (human, UniProt Q9BZW8-2 22-221, limits assumed)
T1 construct: also called recombinant 2B4-His protein; not shown: His tag
T1 sequence (looked up): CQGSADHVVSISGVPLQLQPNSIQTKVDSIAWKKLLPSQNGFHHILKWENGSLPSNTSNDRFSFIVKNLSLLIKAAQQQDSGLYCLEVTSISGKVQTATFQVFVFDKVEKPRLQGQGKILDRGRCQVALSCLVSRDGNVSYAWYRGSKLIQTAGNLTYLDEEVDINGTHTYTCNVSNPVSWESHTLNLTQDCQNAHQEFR

T2: recombinant human CD2 protein (rhCD2-His) (human, UniProt P06729 25-209)
T2 construct: also called recombinant CD2 protein; not shown: His tag
T2 sequence (looked up): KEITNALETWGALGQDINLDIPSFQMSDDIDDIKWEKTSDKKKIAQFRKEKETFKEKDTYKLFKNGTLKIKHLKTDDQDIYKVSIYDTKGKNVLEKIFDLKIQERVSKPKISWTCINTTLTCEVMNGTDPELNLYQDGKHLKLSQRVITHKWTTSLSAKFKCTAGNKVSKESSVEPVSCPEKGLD

T3: recombinant human 2B4-Fc fusion protein (rh2B4-Fc) (human, UniProt Q9BZW8-2 22-221, limits assumed)
T3 construct: not shown: Fc
T3 sequence (looked up): T1 sequence (looked up)

T4: mCD28, plate-bound (mouse, UniProt P31041 20-149, limits assumed)
T4 sequence (looked up): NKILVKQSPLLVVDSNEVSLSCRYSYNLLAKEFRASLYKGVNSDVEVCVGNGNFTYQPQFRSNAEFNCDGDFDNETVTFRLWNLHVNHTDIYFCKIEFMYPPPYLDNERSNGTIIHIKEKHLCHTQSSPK

B1: human CD48-Fc-NKG2A chimeric protein (Fc fusion)
chain: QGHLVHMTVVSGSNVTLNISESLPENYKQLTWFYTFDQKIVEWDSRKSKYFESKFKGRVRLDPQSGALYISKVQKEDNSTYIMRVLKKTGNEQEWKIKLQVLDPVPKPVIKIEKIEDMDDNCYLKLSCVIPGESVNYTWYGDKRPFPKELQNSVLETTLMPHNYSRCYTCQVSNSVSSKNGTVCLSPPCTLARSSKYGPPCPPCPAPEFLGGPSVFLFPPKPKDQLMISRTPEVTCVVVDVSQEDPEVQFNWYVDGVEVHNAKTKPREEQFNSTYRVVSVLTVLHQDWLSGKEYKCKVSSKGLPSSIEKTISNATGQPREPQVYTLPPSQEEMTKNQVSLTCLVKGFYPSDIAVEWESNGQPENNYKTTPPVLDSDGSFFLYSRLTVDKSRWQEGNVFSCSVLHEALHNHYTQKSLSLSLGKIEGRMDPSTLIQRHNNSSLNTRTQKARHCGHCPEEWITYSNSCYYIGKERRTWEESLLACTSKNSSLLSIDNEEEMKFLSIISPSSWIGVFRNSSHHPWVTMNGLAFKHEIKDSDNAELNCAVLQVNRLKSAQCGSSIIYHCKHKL
notes: also called hCD48-Fc-NKG2A
B2: mouse CD80-Fc-NKG2A chimeric protein (Fc fusion)
chain: VDEQLSKSVKDKVLLPCRYNSPHEDESEDRIYWQKHDKVVLSVIAGKLKVWPEYKNRTLYDNTTYSLIILGLVLSDRGTYSCVVQKKERGTYEVKHLALVKLSIKADFSTPNITESGNPSADTKRITCFASGGFPKPRFSWLENGRELPGINTTISQDPESELYTISSQLDFNTTRNHTIKCLIKYGDAHVSEDFTWEKPPEDPPDSKNVPRDCGCKPCICTVPEVSSVFIFPPKPKDVLTITLTPKVTCVVVDISKDDPEVQFSWFVDDVEVHTAQTQPREEQFNSTFRSVSELPIMHQDWLNGKEFKCRVNSAAFPAPIEKTISKTKGRPKAPQVYTIPPPKEQMAKDKVSLTCMITDFFPEDITVEWQWNGQPAENYKNTQPIMDTDGSYFVYSKLNVQKSNWEAGNTFTCSVLHEGLHNHHTEKSLSHSPGIIEGRMDTPYTEAKAQINSSMTRTHRDINYTLSSAQPCPHCPKEWISYSHNCYFIGMERKSWNDSLVSCISKNCSLLYIDSEEEQDFLQSLSLISWTGILRKGRGQPWVWKEDSIFKPKIAEILHDECNCAMMSASGLTADNCTTLHPYLCKCKFPI
notes: also called mCD80-Fc-NKG2A; mCD80-Fc-NKG2a

What was measured:
[1] = molecular target: T5, anti-human IgG antibody (plate-bound); assay: ELISA (single sided Fc): coat Anti-Human IgG (H+L) Jax# 109-005-088, detection HRP Goat anti-human FCgamma
T5 construct: also called anti-human Fc antibody
Description: In another set of experiments, an anti-human IgG antibody was coated on plates and increasing amounts of the hCD48-Fc-NKG2A, hCD58-Fc-NKG2A, and hCD80-Fc-NKG2A chimeric proteins, and a human IgG antibody were added to the plates for capture by the plate-bound […]. The human IgG antibody was used as a positive control and to generate a standard curve. The binding to the anti-human IgG antibody was detected using an anti-human Fcgamma HRP.

[2] = molecular target: T6, recombinant HLA-E-His protein (human, UniProt P13747 22-305, limits assumed); assay: ELISA: the chimeric protein is the titrated coat (1:3), detection HLA-E-His (Novus NBP2-47435PEP), HRP Anti-6x-His-HRP
T6 construct: also called recombinant HLA-E (HLA-E-His); not shown: His tag
T6 sequence (P13747 22-305 limits assumed): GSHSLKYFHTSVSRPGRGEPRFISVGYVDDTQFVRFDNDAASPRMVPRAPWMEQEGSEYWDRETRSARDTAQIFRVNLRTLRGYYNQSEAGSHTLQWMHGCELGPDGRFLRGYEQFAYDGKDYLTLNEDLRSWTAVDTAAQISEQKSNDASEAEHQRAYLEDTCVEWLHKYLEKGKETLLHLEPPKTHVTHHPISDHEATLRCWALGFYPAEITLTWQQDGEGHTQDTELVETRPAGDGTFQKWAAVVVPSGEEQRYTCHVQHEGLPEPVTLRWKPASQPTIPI
Description: In a complementary experiment, increasing amounts of the hCD48-Fc-NKG2A, hCD58-Fc-NKG2A, and hCD80-Fc-NKG2A chimeric proteins or a negative control protein was coated on plates. Recombinant HLA-E-His protein was added to the plates for capture by the plate-bound chimeric proteins or the negative control protein. The captured HLA-E-His protein was detected using an anti-6×-His-HRP antibody.

[3] = molecular target: T1, recombinant human 2B4 protein …; assay: ELISA: coat rh2B4-His (Sino 10042-H08H), detection Anti-hFc-HRP
Description: (§1) Increasing amounts of the indicated chimeric proteins or rhCD48-Fc were added and detected using an anti-mFc-HRP (for mCD80-Fc-NKG2A) or anti-hFc-HRP (for rest of the proteins).
(§2) CD48 is the ligand for 2B4. To understand whether the CD48 parts of the hCD48-Fc-NKG2A chimeric protein can bind 2B4, ELISA-based assays were performed. Briefly, recombinant human 2B4 protein (rh2B4-His) was coated on plates and increasing amounts of the hCD48-Fc-NKG2A and mCD80-Fc-NKG2A chimeric proteins and recombinant human CD48-Fc (rhCD48-Fc) protein was added to the plates for capture by the plate-bound recombinant 2B4 protein. The hCD48-Fc-NKG2A chimeric protein and recombinant human CD48-Fc (rhCD48-Fc) protein bound to the recombinant 2B4 protein was detected using an anti-human Fc HRP. The mCD80-Fc-NKG2A chimeric protein, which was used as a negative control, bound to the recombinant 2B4 protein was detected using an anti-mouse Fc HRP.

[4] = molecular target: T2, recombinant human CD2 protein …; assay: ELISA: coat rhCD2-His (Acro CD2-H5226), detection Anti-hFc-HRP
Description: (§3) Recombinant human CD2 (rhCD2) protein was coated on plates. Increasing amounts of the indicated chimeric proteins or Recombinant human CD58-Fc fusion protein (rhCD58-Fc) were added and detected using an anti-mFc-HRP (for mCD80-Fc-NKG2A) or anti-hFc-HRP (for rest of the proteins).
(§4) CD2 is a transmembrane protein in T cells that binds to its ligand CD58 on APC in humans and on CD48 in rodents. To understand whether the CD48 and CD58 parts of the hCD48-Fc-NKG2A, and hCD58-Fc-NKG2A chimeric protein can bind CD2, ELISA-based assays were performed. Briefly, recombinant human CD2 protein (rhCD2-His) was coated on plates and increasing amounts of the hCD48-Fc-NKG2A, hCD58-Fc-NKG2A, and mCD80-Fc-NKG2A chimeric proteins and recombinant hCD58-Fc protein was added to the plates for capture by the plate-bound recombinant CD2 protein. The […] chimeric protein served as a negative control and recombinant hCD58-Fc protein served as a positive control. The hCD48-Fc-NKG2A and hCD58-Fc-NKG2A, chimeric proteins and recombinant hCD58-Fc protein bound to the recombinant CD2 protein was detected using an anti-human Fc HRP. The mCD80-Fc-NKG2A chimeric protein bound to the recombinant CD2 protein was detected using an anti-mouse Fc HRP.

[5] = molecular target: T3, recombinant human 2B4-Fc fusion protein …; assay: dual ELISA; coat rh2B4-Fc (for SL-048), CD48-Fc-NKG2a titrated, detection HLA-E-His, Anti 6x-His-HRP; the signal needs both bindings
Description: (i) recombinant human 2B4-Fc fusion protein (rh2B4-Fc) was coated on plates. Increasing amounts of the hCD48-Fc-NKG2A or hCD86-Fc-NKG2A chimeric proteins were added and detected using HLA-E-His. The hCD86-Fc-NKG2A chimeric protein was used as a negative control (Negative control #1). […] (ii) recombinant human CD2-Fc fusion protein (rhCD2-Fc) was coated on plates. Increasing amounts of the hCD58-Fc-NKG2A or hCD86-Fc-NKG2A chimeric proteins were added and detected using HLA-E-His. The hCD86-Fc-NKG2A chimeric protein was used as a negative control (Negative control #2).
To understand whether the hCD48-Fc-NKG2A chimeric protein can bind simultaneously to both 2B4 and HLA-E, the following ELISA experiment was carried out. Briefly, and recombinant 2B4 (rh2B4-Fc) protein was coated on plates. Increasing amounts of the hCD48-Fc-NKG2A chimeric protein was added to the plates for capture by the recombinant human 2B4-Fc (rh2B4-Fc) protein. Further, recombinant HLA-E (HLA-E-His) protein was added to the plate for capture by hCD48-Fc-NKG2A chimeric proteins. The binding of the HLA-E-His protein was detected using an anti-His 6× HRP antibody.

[6] = molecular target: T1, recombinant human 2B4 protein …; assay: ELISA: coat h2B4-His (Sino #10042-H08H), detection printed as Anti-mFc-HRP (Jax 115-036-003)
Description: (§5) CD48 binds 2B4 (CD244), a member of the signaling lymphocyte-activation molecule (SLAM) family. To understand whether the CD48 part of the hCD48-Fc-NKG2A chimeric protein can bind […], ELISA-based assays were performed. Briefly, recombinant 2B4-His protein was coated on plates. Human CD28-His protein coated on negative control plates. Increasing amounts of the hCD48-Fc-NKG2A chimeric protein was added to the plates for capture by the plate-bound recombinant 2B4-His protein. […]

[7] = molecular target: T7, recombinant human CD28-His (rhCD28-His) (human, UniProt P10747 19-152); assay: ELISA: coat hCD28-His (negative control coat), detection printed as Anti-mFc-HRP (Jax 115-036-003)
T7 construct: also called Human CD28-His protein; recombinant CD28 protein; not shown: His tag
T7 sequence (P10747 19-152 limits assumed): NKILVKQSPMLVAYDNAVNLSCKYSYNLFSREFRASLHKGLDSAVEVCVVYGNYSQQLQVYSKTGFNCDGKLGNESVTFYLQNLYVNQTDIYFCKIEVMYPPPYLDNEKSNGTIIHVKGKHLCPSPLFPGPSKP
Description: as §5

[8] = molecular target: T8, mTGFβ1, recombinant, plate-bound (mouse, UniProt P04202 279-390, limits assumed); assay: ELISA: coat mTGFB1 (R+D 7666-MB), detection Anti-mFc-HRP
T8 construct: also called recombinant TGFβ1 protein
T8 sequence (P04202 279-390 limits assumed): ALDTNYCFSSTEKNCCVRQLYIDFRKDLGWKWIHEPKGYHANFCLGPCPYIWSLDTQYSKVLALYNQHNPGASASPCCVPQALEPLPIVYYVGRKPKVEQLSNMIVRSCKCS
Description: TGFβ1 is a ligand of TGFBR2. To understand whether the TGFBR2 part of the TGFBR2-Fc-NKG2A chimeric protein can bind TGFβ1, ELISA-based assays were performed. Briefly, recombinant TGFβ1 protein was coated on plates and increasing amounts of the TGFBR2-Fc-NKG2A chimeric protein was added to the plates for capture by the plate-bound recombinant TGFβ1 protein. The chimeric protein bound to the recombinant TGFβ1 protein was detected using an anti-mFc HRP.

[9] = molecular target: T9, anti-mFc IgG antibody (plate-bound); assay: Fc ELISA: coat Anti-mFc (Jax), detect Anti-mFc-HRP (Jax)
T9 construct: also called anti-Fc antibody
Description: A mouse whole IgG was used to generate a standard curve.

[10] = molecular target: T10, HLA class I histocompatibility antigen, alpha chain E (HLA-E), plate-bound recombinant protein (human, UniProt P13747 22-305, limits assumed); assay: ELISA (single-sided): coat hHLA-E (NOVUS), detect Anti-mFc-HRP (Jax)
T10 construct: no tag named there; also called recombinant HLA-E protein
T10 sequence (P13747 22-305 limits assumed): as the sequence (P13747 22-305 limits assumed) above

mCD28, plate-bound = molecular target: T4, mCD28, plate-bound; assay: ELISA (single-sided): coat mCD28-Fc (Acro), detect Anti-mFc-HRP (Jax)
mCTLA-4, plate-bound = mCTLA-4, plate-bound (mouse, UniProt P09793 36-162, limits assumed); assay: ELISA (single-sided): coat mCTLA-4-Fc (Acro), detect Anti-mFc-HRP (Jax)
[11] = molecular target: T2, recombinant human CD2 protein …; assay: ELISA: coat rhCD2-His (Acro CD2-H5226), detection Anti-mFc-HRP for mCD80
Description: as §3, §4

[12] = molecular target: T1, recombinant human 2B4 protein …; assay: ELISA: coat rh2B4-His (Sino 10042-H08H), detection Anti-mFc-HRP for mCD80
Description: as §1, §2

Binder	EC50 (read off the curve) [1] [µg/mL]	EC50 (read off the curve) [2] [µg/mL]	EC50 (read off the curve) [3] [µg/mL]	binding result [4]	EC50 (read off the curve) [5] [µg/mL]	EC50 (read off the curve) [6] [µg/mL]	binding result [7]	binding result [8]	EC50 [9]	EC50 [10]	EC50 (mCD28, plate-bound)	EC50 (mCTLA-4, plate-bound)	binding result [11]	binding result [12]
B1	~0.7	~2	~2	binds	~50	~2	no binding (tested: log[Agonist] about 2.7, ug/ml)	–	–	–	–	–	–	–
B2	–	–	–	–	–	–	–	no binding (tested: log[Agonist] about 2.7, ug/ml)	2.02 nM and 1.36 nM	247 nM and 140 nM	30.8 nM and 22.6 nM	0.958 nM and 0.705 nM	no binding (tested: log[Agonist] about 2.7, ug/ml)	no binding (tested: log[Agonist] about 2.7, ug/ml)
